The experiment has as its target T1, human CD180/MD-1 on HEK293 cells (human, UniProt Q99467 24-661; O95711 21-162).
T1 construct: whole, on cells; CD180 co-expressed with MD-1 on engineered HEK293 cells; also called HEK293 CD180/MD-1 cells; CD180/MD1 HEK293 cells
T1 sequence (looked up) 1: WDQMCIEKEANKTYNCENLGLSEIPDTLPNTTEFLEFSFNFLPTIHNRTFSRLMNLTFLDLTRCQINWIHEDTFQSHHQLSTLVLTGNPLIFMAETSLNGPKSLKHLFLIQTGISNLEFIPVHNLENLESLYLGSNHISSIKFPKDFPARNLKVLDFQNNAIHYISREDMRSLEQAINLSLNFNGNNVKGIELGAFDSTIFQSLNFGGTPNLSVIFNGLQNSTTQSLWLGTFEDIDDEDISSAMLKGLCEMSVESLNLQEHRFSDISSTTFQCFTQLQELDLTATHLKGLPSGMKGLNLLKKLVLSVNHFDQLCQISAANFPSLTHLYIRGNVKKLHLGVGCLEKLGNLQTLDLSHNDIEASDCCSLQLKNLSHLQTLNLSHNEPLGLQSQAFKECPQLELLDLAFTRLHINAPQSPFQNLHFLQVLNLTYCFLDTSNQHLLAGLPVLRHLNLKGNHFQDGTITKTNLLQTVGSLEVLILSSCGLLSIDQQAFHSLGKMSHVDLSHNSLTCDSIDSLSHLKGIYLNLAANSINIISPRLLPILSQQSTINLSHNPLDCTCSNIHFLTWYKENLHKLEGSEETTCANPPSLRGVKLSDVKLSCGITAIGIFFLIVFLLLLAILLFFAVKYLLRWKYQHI
T1 sequence (looked up) 2: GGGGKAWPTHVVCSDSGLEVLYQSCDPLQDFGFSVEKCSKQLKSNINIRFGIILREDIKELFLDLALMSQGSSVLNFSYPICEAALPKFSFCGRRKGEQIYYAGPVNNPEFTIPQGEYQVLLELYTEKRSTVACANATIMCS
The experiment can be described thus: flow cytometry (called cell-based ELISA) on HEK293 CD180/MD-1 cells, MFI fitted to a 4-parameter curve.

B1: CHAMPmAb-014 (antibody, V domains shown)
VH: EVQLVESGGGLVQPGRSLRLSCTTSGFTFADYAMHWVRQTPGQGLEWVSGISWNGGTMGYADSVKGRFTISRDIAKNSLYLQMNSLRAEDTALYYCAKDIAYSRGYFQHWGQGTLVTVSS
VL: not shown
As a reminder, the EC50 is the concentration giving half of the maximal effect. For the molecule B1, a half-maximal effect (EC50) was put at 4 nM.

Source of the values: patent publication EP4658690A2 (dated 2025).
